Measured values reported in IntAct's records for PubMed 31515488.

B1: Programmed cell death 6-interacting protein (Homo sapiens), Q8WUM4 (parent)
chain: MATFISVQLKKTSEVDLAKPLVKFIQQTYPSGGEEQAQYCRAAEELSKLRRAAVGRPLDKHEGALETLLRYYDQICSIEPKFPFSENQICLTFTWKDAFDKGSLFGGSVKLALASLGYEKSCVLFNCAALASQIAAEQNLDNDEGLKIAAKHYQFASGAFLHIKETVLSALSREPTVDISPDTVGTLSLIMLAQAQEVFFLKATRDKMKDAIIAKLANQAADYFGDAFKQCQYKDTLPKEVFPVLAAKHCIMQANAEYHQSILAKQQKKFGEEIARLQHAAELIKTVASRYDEYVNVKDFSDKINRALAAAKKDNDFIYHDRVPDLKDLDPIGKATLVKSTPVNVPISQKFTDLFEKMVPVSVQQSLAAYNQRKADLVNRSIAQMREATTLANGVLASLNLPAAIEDVSGDTVPQSILTKSRSVIEQGGIQTVDQLIKELPELLQRNREILDESLRLLDEEEATDNDLRAKFKERWQRTPSNELYKPLRAEGTNFRTVLDKAVQADGQVKECYQSHRDTIVLLCKPEPELNAAIPSANPAKTMQGSEVVNVLKSLLSNLDEVKKEREGLENDLKSVNFDMTSKFLTALAQDGVINEEALSVTELDRVYGGLTTKVQESLKKQEGLLKNIQVSHQEFSKMKQSNNEANLREEVLKNLATAYDNFVELVANLKEGTKFYNELTEILVRFQNKCSDIVFARKTERDELLKDLQQSIAREPSAPSIPTPAYQSSPAGGHAPTPPTPAPRTMPPTKPQPPARPPPPVLPANRAPSATAPSPVGAGTAAPAPSQTPGSAPPPQAQGPPYPTYPGYPGYCQMPMPMGYNPYAYGQYNMPYPPVYHQSPGQAPYPGPQQPSYPFPQPPQQSYYPQQ
B2: Protein BEX5 (Homo sapiens), Q5H9J7 (parent)
chain: MENVPKENKVVEKAPVQNEAPALGGGEYQEPGGNVKGVWAPPAPGFGEDVPNRLVDNIDMIDGDGDDMERFMEEMRELRRKIRELQLRYSLRILIGDPPHHDHHDEFCLMP
B3: L-fucose dehydrogenase (Homo sapiens), Q9BPX1 (parent)
chain: MATGTRYAGKVVVVTGGGRGIGAGIVRAFVNSGARVVICDKDESGGRALEQELPGAVFILCDVTQEDDVKTLVSETIRRFGRLDCVVNNAGHHPPPQRPEETSAQGFRQLLELNLLGTYTLTKLALPYLRKSQGNVINISSLVGAIGQAQAVPYVATKGAVTAMTKALALDESPYGVRVNCISPGNIWTPLWEELAALMPDPRATIREGMLAQPLGRMGQPAEVGAAAVFLASEANFCTGIELLVTGGAELGYGCKASRSTPVDAPDIPS
partner: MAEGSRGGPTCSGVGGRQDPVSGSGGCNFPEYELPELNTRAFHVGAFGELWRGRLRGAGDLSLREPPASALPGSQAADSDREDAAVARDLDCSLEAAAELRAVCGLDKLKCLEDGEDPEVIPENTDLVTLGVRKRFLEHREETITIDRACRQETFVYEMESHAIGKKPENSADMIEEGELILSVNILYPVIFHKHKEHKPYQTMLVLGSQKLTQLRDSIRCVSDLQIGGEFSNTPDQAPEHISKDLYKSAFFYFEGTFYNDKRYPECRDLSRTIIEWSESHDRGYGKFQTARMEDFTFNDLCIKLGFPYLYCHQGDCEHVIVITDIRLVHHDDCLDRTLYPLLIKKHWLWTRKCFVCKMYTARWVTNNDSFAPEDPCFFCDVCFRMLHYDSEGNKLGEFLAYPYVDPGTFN
B4: Breast cancer anti-estrogen resistance protein 3 (Homo sapiens), O75815-1 (parent)
chain: MAAGKFASLPRNMPVNHQFPLASSMDLLSSRSPLAEHRPDAYQDVSIHGTLPRKKKGPPPIRSCDDFSHMGTLPHSKSPRQNSPVTQDGIQESPWQDRHGETFTFRDPHLLDPTVEYVKFSKERHIMDRTPEKLKKELEEELLLSSEDLRSHAWYHGRIPRQVSENLVQRDGDFLVRDSLSSPGNFVLTCQWKNLAQHFKINRTVLRLSEAYSRVQYQFEMESFDSIPGLVRCYVGNRRPISQQSGAIIFQPINRTVPLRCLEEHYGTSPGQAREGSLTKGRPDVAKRLSLTMGGVQAREQNLPRGNLLRNKEKSGSQPACLDHMQDRRALSLKAHQSESYLPIGCKLPPQSSGVDTSPCPNSPVFRTGSEPALSPAVVRRVSSDARAGEALRGSDSQLCPKPPPKPCKVPFLKVPSSPSAWLNSEANYCELNPAFATGCGRGAKLPSCAQGSHTELLTAKQNEAPGPRNSGVNYLILDDDDRERPWEPAAAQMEKGQWDKGEFVTPLLETVSSFRPNEFESKFLPPENKPLETAMLKRAKELFTNNDPKVIAQHVLSMDCRVARILGVSEEMRRNMGVSSGLELITLPHGHQLRLDIIERHNTMAIGIAVDILGCTGTLEDRAATLSKIIQVAVELKDSMGDLYSFSALMKALEMPQITRLEKTWTALRHQYTQTAILYEKQLKPFSKLLHEGRESTCVPPNNVSVPLLMPLVTLMERQAVTFEGTDMWEKNDQSCEIMLNHLATARFMAEAADSYRMNAERILAGFQPDEEMNEICKTEFQMRLLWGSKGAQVNQTERYEKFNQILTALSRKLEPPPVKQAEL
partner: B4 chain
B5: MAP kinase-activated protein kinase 3 (Homo sapiens), Q16644 (parent)
chain: MDGETAEEQGGPVPPPVAPGGPGLGGAPGGRREPKKYAVTDDYQLSKQVLGLGVNGKVLECFHRRTGQKCALKLLYDSPKARQEVDHHWQASGGPHIVCILDVYENMHHGKRCLLIIMECMEGGELFSRIQERGDQAFTEREAAEIMRDIGTAIQFLHSHNIAHRDVKPENLLYTSKEKDAVLKLTDFGFAKETTQNALQTPCYTPYYVAPEVLGPEKYDKSCDMWSLGVIMYILLCGFPPFYSNTGQAISPGMKRRIRLGQYGFPNPEWSEVSEDAKQLIRLLLKTDPTERLTITQFMNHPWINQSMVVPQTPLHTARVLQEDKDHWDEVKEEMTSALATMRVDYDQVKIKDLKTSNNRLLNKRRKKQAGSSSASQGCNNQ
B6: Coiled-coil domain-containing protein 60 (Homo sapiens), Q8IWA6 (parent)
chain: MTKVPATKKLQSSPNSGAVRPFYASENLRQVPDKPMKSIKYMDKEIINLKKDLIRSRFLIQSVKIGRGYFAILREETAKKKKQQQLQKLKEEERNKFQPAEKISEIHYGDTLLSTYDDEKLKTLGARVTRRPFTPIHSCIISPSLTEAHVEPLFRQLCALHWLLEALTIDHTHHTMKPVITCWNPKDPGGSKSTIKKINKDKSMGQKWEHFITAPKTKKFKIPTMRVTNRKPSRRGSTLSLSRASGGSSPQSSMISVNPGSDEPPSVNTQVTSSKDIEDNESSSTKPDEEPLYMNLQKLLEMVREDARRTVTIENGMQRKAPSILSVLKQNKSNSAYKEMQTTLKSSERSSSTSAESHIQPVQKKSKNRTNCDINIHYKSGVCNTMRAKFYSVAQEAGFCLQDKMEILMKRQEERGIQKFRAFVLVSNFQKDIAKMRHHISVVKGDAEEIADHWYFDLLSKLPEDLKNFRPAKKILVKLQKFGENLDLRIRPHVLLKVLQDLRIWELCSPDIAVAIEFVREHIIHMPQEDYISWLQSRINIPIGPYSALR

Variants of: B1
Conditions: with pdcd6_human PDCD6, O75340
Chain of pdcd6_human PDCD6, O75340 (O75340 whole entry): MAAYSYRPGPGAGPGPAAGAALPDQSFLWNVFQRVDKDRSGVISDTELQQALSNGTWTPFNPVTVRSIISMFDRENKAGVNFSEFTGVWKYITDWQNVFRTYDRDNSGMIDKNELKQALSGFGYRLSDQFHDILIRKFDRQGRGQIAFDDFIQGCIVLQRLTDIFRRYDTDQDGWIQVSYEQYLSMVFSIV

Variant	effect of a mutation on the interaction
S730L	with no effect
A309T	with no effect
N550S	with no effect

Variants of: B2
Conditions: with emil1_human EMILIN1, Q9Y6C2
Chain of emil1_human EMILIN1, Q9Y6C2 (Q9Y6C2 whole entry): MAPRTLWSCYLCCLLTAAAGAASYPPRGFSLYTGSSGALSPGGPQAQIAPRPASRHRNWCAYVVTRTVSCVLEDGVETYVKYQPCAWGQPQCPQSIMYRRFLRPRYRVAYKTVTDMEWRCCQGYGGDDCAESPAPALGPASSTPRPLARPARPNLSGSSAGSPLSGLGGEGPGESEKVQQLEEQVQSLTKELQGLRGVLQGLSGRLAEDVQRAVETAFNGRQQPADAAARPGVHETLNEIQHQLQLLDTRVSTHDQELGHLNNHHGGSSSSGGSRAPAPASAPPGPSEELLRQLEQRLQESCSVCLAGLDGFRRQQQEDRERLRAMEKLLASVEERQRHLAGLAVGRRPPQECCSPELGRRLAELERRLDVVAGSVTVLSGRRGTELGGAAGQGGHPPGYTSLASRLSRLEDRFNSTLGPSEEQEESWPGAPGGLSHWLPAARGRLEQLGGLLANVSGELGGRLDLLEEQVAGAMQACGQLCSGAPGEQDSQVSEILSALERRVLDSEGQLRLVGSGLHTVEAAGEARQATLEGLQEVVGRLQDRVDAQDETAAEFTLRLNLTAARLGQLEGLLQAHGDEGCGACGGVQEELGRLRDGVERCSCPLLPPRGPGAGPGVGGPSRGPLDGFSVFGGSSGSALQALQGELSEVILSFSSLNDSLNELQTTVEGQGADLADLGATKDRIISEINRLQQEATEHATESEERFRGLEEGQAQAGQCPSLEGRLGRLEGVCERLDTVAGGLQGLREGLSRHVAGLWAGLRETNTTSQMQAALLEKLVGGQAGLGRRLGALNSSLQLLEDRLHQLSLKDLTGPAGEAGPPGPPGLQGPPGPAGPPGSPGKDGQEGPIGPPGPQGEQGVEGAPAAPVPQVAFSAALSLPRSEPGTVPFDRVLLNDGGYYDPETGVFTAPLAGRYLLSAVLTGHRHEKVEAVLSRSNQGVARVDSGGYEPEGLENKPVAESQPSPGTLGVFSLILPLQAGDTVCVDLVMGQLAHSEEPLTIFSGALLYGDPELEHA

Variant	effect of a mutation on the interaction
E74D	disrupting interaction strength

Variants of: B3
Conditions: with snpc3_human SNAPC3, Q92966

Variant	effect of a mutation on the interaction
A56T	with no effect
G16W	disrupting interaction strength
R130W	disrupting interaction strength
N31D	with no effect

Variants of: B4
Conditions: with bcar3_human BCAR3, O75815

Variant	effect of a mutation on the interaction
P404S	with no effect

Variants of: B5
Conditions: with mk14_human MAPK14, Q16539
Chain of mk14_human MAPK14, Q16539 (Q16539 whole entry): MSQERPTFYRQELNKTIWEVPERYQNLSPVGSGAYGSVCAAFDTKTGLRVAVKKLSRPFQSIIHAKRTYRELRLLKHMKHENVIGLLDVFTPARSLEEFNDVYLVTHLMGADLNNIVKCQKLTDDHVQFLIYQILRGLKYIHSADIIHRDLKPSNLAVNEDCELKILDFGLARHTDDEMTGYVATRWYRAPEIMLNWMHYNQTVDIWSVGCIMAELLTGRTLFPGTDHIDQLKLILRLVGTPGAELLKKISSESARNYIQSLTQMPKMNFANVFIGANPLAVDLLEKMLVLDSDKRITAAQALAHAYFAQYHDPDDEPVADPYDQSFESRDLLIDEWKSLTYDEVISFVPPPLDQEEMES

Variant	effect of a mutation on the interaction
E105A	with no effect

Variants of: B6
Conditions: with mtus2_human MTUS2, Q5JR59
Chain of mtus2_human MTUS2, Q5JR59 (Q5JR59 whole entry): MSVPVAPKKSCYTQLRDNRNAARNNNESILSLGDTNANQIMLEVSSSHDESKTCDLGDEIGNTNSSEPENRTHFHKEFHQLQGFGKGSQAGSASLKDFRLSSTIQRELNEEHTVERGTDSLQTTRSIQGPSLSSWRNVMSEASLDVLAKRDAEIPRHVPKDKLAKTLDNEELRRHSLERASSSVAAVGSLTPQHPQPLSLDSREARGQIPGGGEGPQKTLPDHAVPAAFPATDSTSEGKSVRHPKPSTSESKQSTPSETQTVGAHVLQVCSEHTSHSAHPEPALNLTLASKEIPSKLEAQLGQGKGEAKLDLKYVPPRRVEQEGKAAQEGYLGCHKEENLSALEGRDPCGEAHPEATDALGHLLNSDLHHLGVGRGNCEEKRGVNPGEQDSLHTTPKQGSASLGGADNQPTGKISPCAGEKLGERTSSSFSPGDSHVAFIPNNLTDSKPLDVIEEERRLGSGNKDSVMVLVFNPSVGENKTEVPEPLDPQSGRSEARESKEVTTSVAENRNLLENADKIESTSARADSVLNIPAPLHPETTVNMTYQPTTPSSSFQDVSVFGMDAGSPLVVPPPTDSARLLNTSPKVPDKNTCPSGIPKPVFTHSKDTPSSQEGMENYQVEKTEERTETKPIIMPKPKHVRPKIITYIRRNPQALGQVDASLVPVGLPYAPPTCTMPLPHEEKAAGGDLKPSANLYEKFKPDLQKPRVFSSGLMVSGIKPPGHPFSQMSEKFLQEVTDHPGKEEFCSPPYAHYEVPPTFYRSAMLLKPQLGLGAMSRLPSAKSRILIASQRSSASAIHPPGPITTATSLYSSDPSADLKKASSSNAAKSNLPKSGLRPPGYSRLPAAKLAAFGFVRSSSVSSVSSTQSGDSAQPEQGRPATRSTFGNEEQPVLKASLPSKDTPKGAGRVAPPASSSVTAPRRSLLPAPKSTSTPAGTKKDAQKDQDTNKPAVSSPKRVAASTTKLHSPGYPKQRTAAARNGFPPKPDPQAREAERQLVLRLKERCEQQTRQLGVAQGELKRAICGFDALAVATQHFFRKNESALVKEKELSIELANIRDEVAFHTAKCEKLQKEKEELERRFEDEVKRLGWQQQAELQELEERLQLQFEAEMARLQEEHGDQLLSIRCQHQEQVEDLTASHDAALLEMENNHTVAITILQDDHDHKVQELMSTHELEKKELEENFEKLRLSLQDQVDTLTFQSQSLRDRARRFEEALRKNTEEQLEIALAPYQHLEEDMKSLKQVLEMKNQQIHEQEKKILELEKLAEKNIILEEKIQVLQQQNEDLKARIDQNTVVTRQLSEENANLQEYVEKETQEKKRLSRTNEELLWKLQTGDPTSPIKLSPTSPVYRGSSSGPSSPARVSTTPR

Variant	effect of a mutation on the interaction
I46V	disrupting interaction strength
